Data on 7 molecules can be found in publication PMC6332795 (Theranostics, 2019).

The target in assay [1] is T1, hemagglutinin (HA) of influenza B virus B/Lee/1940, on purified virus (influenza B virus (B/Lee/1940)).
T1 chain: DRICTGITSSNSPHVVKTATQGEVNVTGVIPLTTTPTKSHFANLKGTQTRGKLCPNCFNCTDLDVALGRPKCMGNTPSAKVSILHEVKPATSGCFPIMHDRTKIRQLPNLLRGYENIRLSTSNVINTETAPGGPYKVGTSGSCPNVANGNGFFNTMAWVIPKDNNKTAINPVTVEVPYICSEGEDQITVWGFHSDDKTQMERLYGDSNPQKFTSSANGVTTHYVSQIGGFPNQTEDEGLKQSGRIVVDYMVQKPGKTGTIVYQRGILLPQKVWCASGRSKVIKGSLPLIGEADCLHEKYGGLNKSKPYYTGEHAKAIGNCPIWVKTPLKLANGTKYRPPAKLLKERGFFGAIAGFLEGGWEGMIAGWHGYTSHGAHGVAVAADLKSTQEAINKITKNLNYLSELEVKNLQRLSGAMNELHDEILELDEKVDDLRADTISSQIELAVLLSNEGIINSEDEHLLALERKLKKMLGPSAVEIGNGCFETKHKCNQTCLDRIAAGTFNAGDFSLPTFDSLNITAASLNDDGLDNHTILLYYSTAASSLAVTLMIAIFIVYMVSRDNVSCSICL
Kind of assay: ELISA. For orientation: ELISA stands for enzyme-linked immunosorbent assay.

In assay [2] the target is B/Florida/4/2006 HA (recombinant HA protein) (Influenza B virus (B/Florida/4/2006), UniProt E1TVD5, strain, biotin (EZ-Link Sulfo-NHS-LC-Biotin kit)). The assay can be described thus: BLI.

B1: C7G6-IgM (antibody, V domains shown)
VH: EVQLQQSGPELVKPGASVKISCKASGYTFTDYNMHWVKQSLGKSLEWIGYIYPNNGGTGYNQKFESKATLTADNSSSTAYMELRTLTSEDSAVYYCVRSGAYYFNYLVPYFDYWGQGTTLTVSS
VL: NIVLTQSPASLAVSLGQRGTISCRASESVDIYGNSFMHWYQQKPGQPPKLLIYLASKLECGVCARFNGSGCRTDFTLAIDPVEGDDGATYYCQQNYEDPWTFGGGTKLEIK
Turning to B1, the binding result in assay [1] is listed as “binds”. For the same molecule, the Kd in assay [2] was found to be 0.58 nM.

B2: C7G6-IgG (antibody, V domains shown)
VH: EVQLQQSGPELVKPGASVKISCKASGYTFTDYNMHWVKQSLGKSLEWIGYIYPNNGGTGYNQKFESKATLTADNSSSTAYMELRTLTSEDSAVYYCVRSGAYYFNYLVPYFDYWGQGTTLTVSS
VL: NIVLTQSPASLAVSLGQRGTISCRASESVDIYGNSFMHWYQQKPGQPPKLLIYLASKLECGVCARFNGSGCRTDFTLAIDPVEGDDGATYYCQQNYEDPWTFGGGTKLEIK
Consider B2, for which, in assay [1], the binding result is reported as “binds”. Besides, the dissociation constant (Kd) in assay [2] was 24.7 nM.

B3: C11B10 (antibody, V domains shown)
VH: EVQLQQSGPELVKPGASVKISCKASGYTFTGYNMHWVKQSHGKSLEWIGKIYPNNGVTGYNQEFRSKATLTVDNSSSTAYMELRSLTSEDSAIYFCVRSGAYYVNYLVPYFDYWGQGTTLTVSS
VL: NIVLTQSPASLAVSPGQRATISCRASESIDIYGNSFMHWYQKKPGQPPKLLIYRASNLESGVPARFNGSGSRTDFTLTIDPVEGDDGATYYCQQNYEDPWTFGGGTKLEIK
With B3, the binding result in assay [1] is on record as “no binding”.

B4: C10H10-IgM (antibody, V domains shown)
VH: EIQLQQSGPELVKPGASLKVSCKGFGYSFTDYKMYWVKQSHGKSLEWIGYIDPYNGGMRYNQKFKVKATLTVDMSSNTTFMHLNSLTFEDFAVYYCARGYGKNYAMEYWGQGTSVTVSS
VL: NIVLTQSPASLAVSLGQRATISCRASESVDTYGQSFMHWYQQKPGQPPKLLIHLASNLESGVPARFNGSGSRTDFTLTIDPVEADDAATYYCQQNNEDPYTFGGGTKLEIK
Take B4: the binding result in assay [1] was “no binding”.

B5: C10H10-IgG (antibody, V domains shown)
VH: EIQLQQSGPELVKPGASLKVSCKGFGYSFTDYKMYWVKQSHGKSLEWIGYIDPYNGGMRYNQKFKVKATLTVDMSSNTTFMHLNSLTFEDFAVYYCARGYGKNYAMEYWGQGTSVTVSS
VL: NIVLTQSPASLAVSLGQRATISCRASESVDTYGQSFMHWYQQKPGQPPKLLIHLASNLESGVPARFNGSGSRTDFTLTIDPVEADDAATYYCQQNNEDPYTFGGGTKLEIK
Consider B5, for which, in assay [1], the binding result is recorded as “no binding”.

B6: C3G10-IgM (antibody, V domains shown)
VH: EVQLQESGAELVKPGASVKLSCTASGFDIKDTYIHWVKQKPEKGLEWIGRIDPADGDTQSDPRFQGKATITSDTSSNTTYLHLSSLTSEDTAVYYCAKGGWYFDVWGAGTTVTVSS
VL: HIVLTQSPASLAVSLGQRGTISCRASESVDSYGNSFMHWYQQRPGQPPKLLIYLASKLKCGVPARFSGSGSRTDFTLTNDPLEGGDGATYYCQQNNEVPRTFGGGTKLEIK
For the molecule B6, the binding result in assay [1] is recorded as “binds”.

B7: C3G10-IgG (antibody, V domains shown)
VH: EVQLQESGAELVKPGASVKLSCTASGFDIKDTYIHWVKQKPEKGLEWIGRIDPADGDTQSDPRFQGKATITSDTSSNTTYLHLSSLTSEDTAVYYCAKGGWYFDVWGAGTTVTVSS
VL: HIVLTQSPASLAVSLGQRGTISCRASESVDSYGNSFMHWYQQRPGQPPKLLIYLASKLKCGVPARFSGSGSRTDFTLTNDPLEGGDGATYYCQQNNEVPRTFGGGTKLEIK
On to B7, for which the binding result in assay [1] is “binds”.

As usually defined, the Kd is the constant that tells how readily two partners part at equilibrium.
